# Results: the supplement of paper PMC7877785
# ± gives the uncertainty stated by the source.
# Test: self-splicing fitness, log relative to wild type (ln ratio); higher = more splicing; Tetrahymena group I intron in knt gene, E. coli kanamycin selection, DiMSum; sequences stand for … in CUCUCU…GGAGGGAAAAGUUAUCAGGCAUGCACCUGGUAGCUAGUCUUUAAACCAAUAGAUUGCAUCGGUUUAAAAGGCAAGACCGUCAAAUUGCGGGAAAGGGGUCAACAGCCGUUCAGUACCAAGUCUCAGGGGAAACUUUGAGAUGGCCUUGCAAAGGGUAUGGUAAUAAGCUGACGGACAUGGUCCUAACCACGCAGCCAAGUCCUAAGUCAACAGAUCUUCUGUUGAUAUGGAUGCAGUUCACAGACUAAAUGUCGGUCGGGGAAGAUGUAUUCUUCUCAUAAGAUAUAGUCGGACCUCUCCUUAAUGGGAGCUAGCGGAUGAAGUGAUGCAACACUGGAGCCGCUGGGAACUAAUUUGUAUGCGAAAGUAUAUUGAUUAGUUUUGGAGUACUCGUGGUCG
# Procedure, shortened: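 Pooled colonies went to amplicon sequencing on an Illumina HiSeq 2500 after six replicate transformations. The plates were LB agar with 100 μg/mL carbenicillin, 50 μM IPTG and 0.2% rhamnose, with or without 25 μg/mL kanamycin, incubated overnight at 37°C or 30°C. The E. coli BL21(DE3) library had all eight P1ex-region intron nucleotides randomised, the intron placed in the knt kanamycin-resistance gene on pET-22b(+). DiMSum fitness is the error-weighted combination of replicate fold changes, kanamycin against none, normalised to wild type.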
Sequence,self-splicing fitness (ln) (37 °C),self-splicing fitness (ln) (30 °C)
CUUAAGCAAUAUUACGCUGC,-1 ± 0.35,
GGUCAGCAAUAUUACGGAUG,-0.309 ± 0.097,-0.625 ± 0.095
UUUUAGCAAUAUUACGUAAU,-1.6 ± 0.22,-3.62 ± 0.28
GCGCAGCAAUAUUACGUGCU,-2.87 ± 0.23,-4.09 ± 0.2
CACGAGCAAUAUUACGUUGG,-1.79 ± 0.14,-3.11 ± 0.16
AGACAGCAAUAUUACGAAAG,-2.48 ± 0.21,-2.18 ± 0.17
CCAAAGCAAUAUUACGUAGC,-2.48 ± 0.16,-3.81 ± 0.16
GGAAAGCAAUAUUACGACGC,0.595 ± 0.16,-0.197 ± 0.1
UACCAGCAAUAUUACGUUCG,0.0802 ± 0.092,-0.545 ± 0.071
ACCUAGCAAUAUUACGGGCC,-0.63 ± 0.16,-2.34 ± 0.18
CAAAAGCAAUAUUACGCAGG,-1.24 ± 0.087,-2.51 ± 0.1
CUGGAGCAAUAUUACGAGGA,,-3.18 ± 0.33
AAAGAGCAAUAUUACGAAUC,-2.7 ± 0.26,-3.27 ± 0.24
CGGCAGCAAUAUUACGGCGA,-2.72 ± 0.18,-3.18 ± 0.16
GAUAAGCAAUAUUACGUCCG,-2.1 ± 0.22,-4.76 ± 0.36
CACGAGCAAUAUUACGACAC,-2.18 ± 0.3,-2.84 ± 0.23
AUCAAGCAAUAUUACGUUCC,-0.598 ± 0.17,-2.85 ± 0.13
GGUAAGCAAUAUUACGAAAC,-0.179 ± 0.12,-1.48 ± 0.14
UCUAAGCAAUAUUACGUCUC,-3.38 ± 0.4,
UCGAAGCAAUAUUACGCGCA,-0.635 ± 0.21,0.425 ± 0.26
AAAGAGCAAUAUUACGUCCA,-1.93 ± 0.36,-1.76 ± 0.33
UCCUAGCAAUAUUACGACUA,-2.73 ± 0.41,-1.23 ± 0.38

Sequence,self-splicing fitness (ln) (37 °C),self-splicing fitness (ln) (30 °C)
UCCCAGCAAUAUUACGUUGU,-1.97 ± 0.11,-4.06 ± 0.15
AUGUAGCAAUAUUACGCUUU,-1.29 ± 0.11,-3.23 ± 0.15
CGAGAGCAAUAUUACGUGCU,,-4.22 ± 0.46
CUUGAGCAAUAUUACGUUAU,-2.77 ± 0.36,-3.45 ± 0.27
UCAGAGCAAUAUUACGACUU,-3.12 ± 0.38,-2.45 ± 0.19
ACAAAGCAAUAUUACGUUCC,-1.73 ± 0.15,-2.06 ± 0.11
AUCAAGCAAUAUUACGCACC,-0.581 ± 0.31,-0.849 ± 0.26
UAUUAGCAAUAUUACGAUGA,0.262 ± 0.13,-0.641 ± 0.11
CGUGAGCAAUAUUACGGUCU,-2.16 ± 0.42,-2.56 ± 0.17
CGGCAGCAAUAUUACGGAUU,-2.24 ± 0.21,-3.9 ± 0.31
CUAGAGCAAUAUUACGUGUA,-2.41 ± 0.23,-4.57 ± 0.46
UCCGAGCAAUAUUACGAGGU,,-3.89 ± 0.34
GCGCAGCAAUAUUACGACAC,,-0.738 ± 0.38
AUCAAGCAAUAUUACGCGGG,-1.04 ± 0.12,-2.86 ± 0.14
GUACAGCAAUAUUACGUUGA,-1.59 ± 0.095,-2.77 ± 0.12
UAAAAGCAAUAUUACGAUAU,-0.953 ± 0.1,-2.59 ± 0.1
ACAAAGCAAUAUUACGAGGG,-2.14 ± 0.11,-3.39 ± 0.11
UUCAAGCAAUAUUACGCUAU,-1.63 ± 0.16,-2.4 ± 0.15
UUAGAGCAAUAUUACGCAGG,-0.784 ± 0.16,-2.7 ± 0.2
CGCCAGCAAUAUUACGCACA,-1.65 ± 0.27,-1.68 ± 0.2
AUGAAGCAAUAUUACGUUAC,-2.38 ± 0.24,-1.96 ± 0.13
ACAAAGCAAUAUUACGGCUG,-0.277 ± 0.088,-0.524 ± 0.069
